Molecular target: T1, CD3 on Jurkat cells (human, UniProt P07766 23-207)
T1 construct: whole, on cells; the CD3 complex has several chains; also called T cells (Jurkat); J6 cells
Experiment: binding to J6 cells; method not described

T1 sequence (P07766 23-207): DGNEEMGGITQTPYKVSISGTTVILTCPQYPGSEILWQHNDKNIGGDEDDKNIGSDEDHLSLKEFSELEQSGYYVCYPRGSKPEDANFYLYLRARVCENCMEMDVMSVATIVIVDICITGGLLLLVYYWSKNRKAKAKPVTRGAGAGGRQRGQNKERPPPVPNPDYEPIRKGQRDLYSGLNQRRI

B1: BsF(ab')2 v1 (anti-p185HER2/anti-CD3 v1) (bispecific antibody)
chain 1: not shown
chain 2: not shown
chain 3: DIQMTQSPSSLSASVGDRVTITCRASQDIRNYLNWYQQKPGKAPKLLIYYTSRLESGVPSRFSGSGSGTDYTLTISSLQPEDFATYYCQQGNTLPWTFGQGTKVEIK
chain 4: EVQLVESGGGLVQPGGSLRLSCAASGYSFTGYTMNWVRQAPGKGLEWVALINPYKGVTTYADSVKGRFTISVDKSKNTAYLQMNSLRAEDTAVYYCARSGYYGDSDWYFDVWGQGTLVTVSS
modifications: hinge Cys thioether-linked through o-PDM to the other Fab' arm
Kd: 140 nM
